From paper PMC6325244, “Regulation of the Peptidoglycan Polymerase Activity of PBP1b by Antagonist Actions of the Core Divisome Proteins FtsBLQ and FtsN” (mBio, 2019) come the findings set out here.

Assay [1] addresses T1, PBP1b (E. coli, UniProt P02919 1-844, fluorescent ampicillin label added after elution).
T1 construct: PBP1b, E. coli, class A PBP, bifunctional glycosyltransferase/transpeptidase; Untagged as prey of HisFtsBLQ, HisFtsBL, HisFtsQ and HisFtsW; also called untagged PBP1b; source: E. coli C43 (DE3) or Lemo21 (DE3), coexpressed from Duet vectors, in detergent extract of membranes
T1 sequence (looked up): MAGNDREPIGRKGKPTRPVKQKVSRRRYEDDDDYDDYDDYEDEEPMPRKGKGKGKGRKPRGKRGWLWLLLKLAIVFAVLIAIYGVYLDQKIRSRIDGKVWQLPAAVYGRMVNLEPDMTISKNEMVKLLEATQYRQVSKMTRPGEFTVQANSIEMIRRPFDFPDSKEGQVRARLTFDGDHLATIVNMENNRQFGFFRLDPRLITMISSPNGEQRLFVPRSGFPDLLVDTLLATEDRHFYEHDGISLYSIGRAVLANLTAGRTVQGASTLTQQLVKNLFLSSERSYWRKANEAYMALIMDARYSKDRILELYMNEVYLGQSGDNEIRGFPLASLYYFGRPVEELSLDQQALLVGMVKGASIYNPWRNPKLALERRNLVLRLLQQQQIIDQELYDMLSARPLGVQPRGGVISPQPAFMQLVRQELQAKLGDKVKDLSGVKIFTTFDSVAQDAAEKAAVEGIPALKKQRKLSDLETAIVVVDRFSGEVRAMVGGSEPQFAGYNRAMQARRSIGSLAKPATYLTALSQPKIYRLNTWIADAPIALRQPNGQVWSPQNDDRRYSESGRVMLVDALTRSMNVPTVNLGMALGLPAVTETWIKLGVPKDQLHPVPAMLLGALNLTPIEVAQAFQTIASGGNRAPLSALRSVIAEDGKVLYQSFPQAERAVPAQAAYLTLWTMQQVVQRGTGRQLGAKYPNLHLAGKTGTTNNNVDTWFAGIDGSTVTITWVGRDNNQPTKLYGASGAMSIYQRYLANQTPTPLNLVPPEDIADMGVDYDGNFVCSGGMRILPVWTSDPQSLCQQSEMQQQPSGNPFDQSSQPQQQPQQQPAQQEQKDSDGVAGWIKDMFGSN
Nature of the assay: pull-down + SEC; PBP1b copurified with FtsN or FtsN W83L on a nickel column followed by gel filtration; SDS-PAGE, Coomassie, band amounts by Image Quant TL.

For assay [2], the target named is T1, PBP1b.

For the molecule “FtsN^W83L (from UniProt P29131 1-319) (natural protein)”, in assay [1], the PBP1b/FtsN ratio in the copurified complex after gel filtration (parts PBP1b of 100 (PBP1b/FtsN 20/80)) worked out at 20. The molecule also registered a fold decrease in stimulation of the GTase activity of PBP1b (continuous fluorescence assay), initial velocity against wild-type FtsN in assay [2] of 2 fold.

B1: FtsN (natural protein, E. coli, UniProt P29131 1-319, looked up)
chain: MAQRDYVRRSQPAPSRRKKSTSRKKQRNLPAVSPAMVAIAAAVLVTFIGGLYFITHHKKEESETLQSQKVTGNGLPPKPEERWRYIKELESRQPGVRAPTEPSAGGEVKTPEQLTPEQRQLLEQMQADMRQQPTQLVEVPWNEQTPEQRQQTLQRQRQAQQLAEQQRLAQQSRTTEQSWQQQTRTSQAAPVQAQPRQSKPASSQQPYQDLLQTPAHTTAQSKPQQAAPVARAADAPKPTAEKKDERRWMVQCGSFRGAEQAETVRAQLAFEGFDSKITTNNGWNRVVIGPVKGKENADSTLNRLKMAGHTNCIRLAAGG
notes: FtsN, E. coli, bitopic membrane protein; also called FtsN^WT; FtsNWT; source: E. coli C43 (DE3) or Lemo21 (DE3), coexpressed from Duet vectors, in detergent extract of membranes; also purified
As to B1, the “PBP1b/FtsN ratio in the copurified complex after gel filtration” value in assay [1] (partners not purified) was ~40 parts PBP1b of 100 (PBP1b/FtsN 40/60).
